Measurements from patent publication US20250296984A1, “THERAPEUTIC AND DIAGNOSTIC AGENTS AND USES THEREOF” (priority 2022, published 2025).

What was measured:
pancreatic tissue = experiment: IHC on pancreatic tissues; parameters: species or system human
Text: FIG. 20. Some pancreatic tissues were studied to exclude general off-target binding of the 28-13-5G6-1D3 to this tissue type. […] The HCMV ISH is negative indicating absence of viral HCMV DNA in the normal pancreatic tissue sample. […] Thus, the same sample is positive for both HCMV proteins US28 and IE and HCMV DNA but negative for the negative control IgG indicating specific antibody binding. The US28 protein staining is cytoplasmic as expected, the IE protein is mostly located in the cell nucleus as expected since it is a nuclear protein. […] A colour version of FIG. 20 is also provided.

[1] = system: HCMV infected human lung tissue; experiment: Immunohistochemistry (IHC) on HCMV infected human lung tissue and controls; conditions: HCMV positive control slide, FIG. 12
Procedure: Cytomegalovirus (CMV) control slides containing CMV positive lung tissue and CMV negative myometrium (product number #3240A) were obtained from Newcomer Supply Inc., Middleton, WI 53562-2579, USA. Tissue micro-arrays (TMAs) were obtained from US Biomax Inc., Derwood, MD 20855, USA, and included tumor tissues #BR1008b, #BS17016c, #BCN721b and normal tissues #FDA662a and heart tissues #HEN241a.
The paraffin sections were sequentially immersed into a. 100% xylene three times (5 min each); b. 100% ethanol twice (2 min each); c. 95% ethanol twice (2 min each). The slides were rinsed twice in water for 5 min to remove ethanol. […], the slides were immersed in 3% H2O2 for 5 minutes and washed thereafter twice (2×) with distilled water. The slides were then immersed in the working citrate buffer (pH 6.0) and covered with a lid. The buffer was heated in the microwave until it had boiled, and then kept in the steamer for 15 min.
The sections were cooled at room temperature for 30 min and washed with PBS. 5% BSA blocking solution was then added to the HIER treated samples and they were incubated at 37° C. for 30 min. […] Digitized pictures were taken by Olympus VS120 scanner and analyzed by using OlyVia 3.2 software (Olympus Corporation, 20101 Tokyo, Japan) by senior Pathologist.

Peptide 3 ([…]) = Peptide 3 ([…]) (Human cytomegalovirus, UniProt P69332); experiment: HuProt Human Proteome Microarray, control peptide; format: binding, HCMV
Text: The HuProt™ Human Proteome Microarray provides the largest number of unique, full-length, individually purified human proteins on a single microscope slide. It provides >21,000 unique human proteins, isoform variants, and protein fragments—covering 16,794 unique genes. This includes 15,889 of the 19,613 canonical human proteins described in the Human Protein Atlas, with broad coverage across protein subclasses. This allows thousands of interactions to be profiled in a high-throughput manner. The full-length recombinant proteins are expressed in the yeast S. cerevisiae, purified, and printed on glass slides in duplicate along with a set of control proteins (GST, BSA, histones, IgG, etc.). The full list of the different proteins included in the HuProt™ Human Proteome Microarray as used in this Example is provided as “List B” in the Research Disclosures publication (ISSN 0374-4353, Questel Ireland Ltd) with database numbers 707018, 707019 and 707020, each entitled “Large scale protein arrange target protein identities” and each digitally published on 27 Jan. 2023, the contents of each of which are incorporated herein by reference in their entirety, fo the purposes of the disclosure of the proteins defined by “List B”. “List B” begins in Research Disclosures publication 707018, is continued in Research Disclosures publication 707019, and concludes Research Disclosures publications 707020, and so the three publications are to be read consecutively as a single disclosure of the “List B” proteins. The HuProt™ microarray is not restricted to a particular type of surface coating, although the default is glass coated with ultrathin nitrocellulose film for the non-covalent, yet irreversible, capture of active proteins to the surface.
Samples of humanised 7B1F3 and mouse 7B1F3 antibodies were analysed for binding specificities on HuProt™ human proteome arrays. A peptide with the sequence TDVLNQSKPVTL (“Peptide 3”) was added to the arrays at 0.1 mg/ml as a control.
After blocking, the arrays were probed with the antibody samples (0.1 μg/ml) at room temperature for 1 hour. Then the arrays were washed with TBST for 10 min×3 and probed with Alexa647-anti-human IgG Fc or Alexa647-anti-mouse IgG secondary antibodies under conditions optimized by CDI Labs for signal detection.
• Non-specific hits that directly bind to the secondary antibodies were eliminated from the analysis of the samples. • CDI software was used to quantify the specificity of each individual sample to specific proteins on the array based on Z Scores. • Z score is the average Z score of the duplicate spots of a given protein (each protein is printed in duplicate on a HuProt™ array). The Z score of each spot on a given array is calculated according to the algorithm below:
Z=[F635−F635(avg)]/F635(std) • F635(avg) and F635(std) are the average and standard deviation of the F635 values of all spots on the array, respectively. • S score is the difference of the Z Scores of a given protein and the one ranked next to it. If the S score of the top hit is >3, the antibody is considered to be highly specific for the top hit. • F635 is the average foreground signal intensity of 2 replicate spots of a given protein in the detection channel (635 nm). • B635 is the average background signal intensity of 2 replicate spots of a given protein in the detection channel (635 nm).

[2] = Table 9, top hit Peptide 3, antibody 0.1 μg/ml

B1: 13-5G6-1D3: mouse monoclonal IgG1 kappa antibody against US28 ECD3; VH SEQ ID NO: 12, VL SEQ ID NO: 18 (antibody, V domains shown)
VH: EVKLVESGGGLVQPGGSLRLACATSGFTFTDYYMSWVRQPPGKALEWLGFIRSKANGYTTEYSASVKGRFTISRDNSQSILYLQMNTLRSEDSATYYCARDERRTAWLAYWGQGTLVTVSA
VL: DVLMTQTPLSLPVSLGDQASISCRSSQSIVHSNGNTYLDWYLQKPGQSPKLLIYKVSNRFSGVPDRFSGSGSGTDFTLKISRVEAEDLGVYYCFQGSHVPTWTFGGGTKLEIK
modifications: Mature form of VH sequence of 1D3, without the leader sequence; Mature form of VL sequence of 1D3, without the leader sequence
- IHC staining of normal pancreatic tissue (pancreatic tissue; HCMV ISH negative sample): negative staining
- IHC staining of pancreatic tissue sample from another patient (pancreatic tissue; HCMV ISH positive sample): positive

B2: 13-5G6-1D3 rAb: recombinant antibody product of US28-13-5G6-1D3 produced in HEK293-F cells (antibody)
heavy: EVKLVESGGGLVQPGGSLRLACATSGFTFTDYYMSWVRQPPGKALEWLGFIRSKANGYTTEYSASVKGRFTISRDNSQSILYLQMNTLRSEDSATYYCARDERRTAWLAYWGQGTLVTVSAAKTTPPSVYPLAPGSAAQTNSMVTLGCLVKGYFPEPVTVTWNSGSLSSGVHTFPAVLQSDLYTLSSSVTVPSSTWPSETVTCNVAHPASSTKVDKKIVPRDCGCKPCICTVPEVSSVFIFPPKPKDVLTITLTPKVTCVVVDISKDDPEVQFSWFVDDVEVHTAQTQPREEQFNSTFRSVSELPIMHQDWLNGKEFKCRVNSAAFPAPIEKTISKTKGRPKAPQVYTIPPPKEQMAKDKVSLTCMITDFFPEDITVEWQWNGQPAENYKNTQPIMDTDGSYFIYSKLNVQKSNWEAGNTFTCSVLHEGLHNHHTEKSLSHSPGK
light: DVLMTQTPLSLPVSLGDQASISCRSSQSIVHSNGNTYLDWYLQKPGQSPKLLIYKVSNRFSGVPDRFSGSGSGTDFTLKISRVEAEDLGVYYCFQGSHVPTWTFGGGTKLEIKRADAAPTVSIFPPSSEQLTSGGASVVCFLNNFYPKDINVKWKIDGSERQNGVLNSWTDQDSKDSTYSMSSTLTLTKDEYERHNSYTCEATHKTSTSPIVKSFNRNEC
- IHC staining of HCMV infected cells in lung tissue [1]: strong cytoplasmic staining

B3: 7B1F3: mouse IgG1 kappa antibody against US28 ECD1 Peptide-N; VH SEQ ID NO: 211, VL SEQ ID NO: 213 (antibody, V domains shown)
VH: EVQLQQSGAELAKPGASVKMSCKASGYTFTNYWMHWVKQRPGQGLEWIGYVNPRTGYTEYNQKFKDKATLTADKSSRTAYMQLSSLTSEDSAVYSCARILNGTGFAYWGQGTLVTVSA
VL: DIVLTQSPSSLTVSVGEKFTMSCKSSQSLLYSSNQKNYLAWYQQKPGQSPKLLIYWASTRESGVPDRFTGSGSGTDFTLAISSVKPEDLAIYYCQQYYSFPLTFGAGTKLEIK
modifications: Mature form of VH sequence of 7B1F3, without the leader sequence; Mature form of VL sequence of 7B1F3, without the leader sequence
- S Score (Peptide 3 ([…]); Protein: Peptide 3): 116.095
- Z Score (Peptide 3 ([…]); Protein: Peptide 3): 145.092
- F635 (Peptide 3 ([…]); Protein: Peptide 3, antibody 0.1 μg/ml): 49972
- Peptide 3 Signal (Peptide 3 ([…]); Table 9, antibody 0.1 μg/ml): 49972
- Top Hit (Peptide 3 ([…]); Table 9, antibody 0.1 μg/ml): Peptide 3
- S Score (Peptide 3 ([…]); [2]): 116.095
- Z Score (Peptide 3 ([…]); [2]): 145.092
- Signal (Peptide 3 ([…]); Table 9, top hit, 65535 is the saturation signal intensity): 49972
